{"source": "patent US7799901B2", "about": "“Modulators of the function of FAS receptors and other proteins” (Yeda Research and Development Co. Ltd., priority 1995, dated 2010)", "molecules": {"B1": {"name": "MACHα1 (C360S): MACHα1 mutant in which the catalytic cysteine Cys360 is replaced by Ser (protein)", "chain": "MDFSRNLYDIGEQLDSEDLASLKFLSLDYIPQRKQEPIKDALMLFQRLQEKRMLEESNLSFLKELLFRINRLDLLITYLNTRKEEMERELQTPGRAQISAYRVMLYQISEEVSRSELRSFKFLLQEEISKCKLDDDMNLLDIFIEMEKRVILGEGKLDILKRVCAQINKSLLKIINDYEEFSKERSSSLEGSPDEFSNGEELCGVMTISDSPREQDSESQTLDKVYQMKSKPRGYCLIINNHNFAKAREKVPKLHSIRDRNGTHLDAGALTTTFEELHFEIKPHDDCTVEQIYEILKIYQLMDHSNMDCFICCILSHGDKGIIYGTDGQEAPIYELTSQFTGLKCPSLAGKPKVFFIQASQGDNYQKGIPVETDSEEQPYLEMDLSSPQTRYIPDEADFLLGMATVNNCVSYRNPAEGTWYIQSLCQSLRERCPRGDDILTILTEVNYEVSNKDDKKNMGKQMPQPTFTLRKKLVFPSD"}, "B2": {"name": "MORT-1: Mediator of Receptor-induced Toxicity; protein binding the intracellular domain of FAS-R, SEQ ID NO:2 (protein)", "chain": "VNQAPECRFGGGILGPLGKRRDLARASEPRTEGARRAGPQPRPLADPAMDPFLVLLHSVSSSLSSSELTELKFLCLGRVVKRKLERVQSGLDLFSMLLEQNDLEPGHTELLRELLASLRRHDLLRRVDDFEAGAAAGAAPGEEDLCAAFNVICDNVGKDWRRLARQLKVSDTKIDSIEDRYPRNLTERVRESLRIWKNTEKENATVAHLVGALRSCQMNLVADLVQEVQQARDLQNRSGAMSPMSWNSDASTSEAS"}}, "format_in_all_cases": "cell-based, human", "key": {"[1]": {"system": "Fas/APO1 cytotoxicity (p55-Fas chimera) in 293-EBNA cells", "conditions": "co-transfection", "procedure": "(§1) In brief, 293-EBNA cells, MCF7 human breast carcinoma cells and HeLa HtTA-1 cells were grown in Dulbecco's modified Eagle's minimal essential medium supplemented with 10% fetal calf serum, nonessential amino acids, 100 U/ml penicillin and 100 μg/ml streptomycin. Cell tissue culture dishes (5×10^5 293-EBNA cells, 3×10^5 s MCF7 cells or 3×10^5 HeLa cells in 6-cm dishes) were transiently transfected, using the calcium phosphate precipitation method, with the cDNAs of the indicated proteins together with the β-galactosidase expression vector. In the experiments presented in FIGS. 14A-D and 15, each dish was transfected with 3.5 μg of the indicated MACH construct and 1.5 μg of pSV-β-gal. In the experiments presented in FIGS. 16A-D and 17-19, each dish was transfected with 2.5 μg of the indicated MACH or MORT1 construct (or, as control, empty vector) and 1.5 μg of pSV-β-gal. The cells were rinsed 6 to 10 h after transfection. The 293-EBNA and MCF7 cells were incubated for a further 18 h without additional treatment. […] The extent of cell death at the end of the incubation periods was assessed by determination of β-galactosidase expression, as described by Kumar et al, 1994. […]\n(§2) In particular, FIGS. 16A-D show morphology of 293-EBNA cells in which cell death was induced by transient expression of a chimera comprised of the extracellular domain of the p55-R (amino acids 1-168) fused to the transmembrane and intracellular domains of Fas/APO1 (amino acids 153-319) (p55-Fas chimera) (FIGS. 16A and 16B), or by expression of the p55-R (FIGS. 16C and 16D), and of cells that were protected from these cytotoxic effects by their simultaneous transfection with MACHα1 (C360S) (FIGS. 16B and 16D). […] FIG. 17 illustrates the quantification of death induced in 293-EBNA cells by their transfection with p55-Fas chimera or with p55-R, together with an empty vector, a MORT1 deletion mutant lacking the MACH-binding region (MORT1 (92-208)), or MACHα molecules containing a nonfunctional CED3/ICE region. […] Data are from at least two independent experiments and are expressed as in FIGS. 14A-F and 15."}, "[2]": {"system": "p55-R-induced cytotoxicity in 293-EBNA cells", "assay": "Death of 293-EBNA cells induced by over-expression of p55-R", "conditions": "co-transfection", "procedure": "as §1, §2"}, "[3]": {"system": "HeLa cells", "assay": "Cytotoxicity triggered by induced expression of MORT-1 in HeLa cells", "conditions": "tetracycline-controlled transient expression; neutral red uptake or secreted placental alkaline phosphatase", "procedure": "MORT-1, Fas-IC, p55-IC and luciferase cDNAs were inserted into a tetracycline-controlled expression vector and transfected to HtTA-1 cells (a HeLa cell line) (Gossen and Bujard, 1992) together with the secreted placental alkaline phosphatase cDNA, placed under control of SV40 promoter (the pSBC-2 vector, Dirks et al, 1993). Cell death was assessed 40 hours after transfection, either by the neutral-red uptake assay (Wallach, 1984) or, for assessing specifically the death in those cells that express the transfected cDNAs, by determining the amounts of placental alkaline phosphatase (Berger et al, 1988) secreted to the growth medium at the last 5 hours of incubation.\nHigh expression of p55-IC results in triggering of a cytocidal effect (Boldin et al, 1995). The expression of Fas-IC in HeLa cells also has such an effect, though to a lower extent, which could be detected only with the use of a sensitive assay. The ligand independent triggering of cytocidal effects in cells transfected with MORT-1, as well as human p55-IC and FAS-IC, was thus analyzed. The effect of transient expression of MORT-1, human Fas-IC, human p55-IC, or luciferase that served as a control, on the viability of HeLa cells was assessed using a tetracycline-controlled expression vector. […]"}}, "data": [{"molecule": "B1", "values": [{"measurement": "protection against Fas/APO1 cytotoxicity (p55-Fas chimera)", "setting": "[1]", "result": "protected"}, {"measurement": "protection against p55-R-induced cytotoxicity", "setting": "[2]", "result": "protected"}]}, {"molecule": "B2", "values": [{"measurement": "cell death on expression in HeLa cells", "setting": "[3]", "result": "significant cell death"}]}]}
